Data set [1] is described as follows: FIG. 1 enzyme assay using OPD (L-amino acid oxidase activity). Particulars: for substrate preference of LAAO activity: L-amino acid substrates; for pH optimum of L-amino acid oxidase (LAAO) activity: pH value at which activity is maximal. In kind it is biochemical. The protocol:
3,3′,5,5′-tetramethylbenzidine (TMB) or o-phenylenediamine (OPD) is used as a chromogenic substrate in the FIG. 1 assay. TMB is advantageous because it is not mutagenic and therefore not likely to be carcinogenic, whereas OPD and o-dianisidine are mutagenic.
To perform these measurements, we developed a FIG. 1 enzyme assay using OPD as a substrate.
For the FIG. 1 enzyme assay using OPD, 10 μl of sample is added to a 190 μl assay mixture resulting in a 200 μl reaction with final concentration of 5 to 50 mM L-phenylalanine (Sigma, St. Louis, Mo.), 10 U/ml peroxidase (Sigma), 0.5 mg/ml OPD (Sigma), and 52.5 mM sodium acetate (pH 4). The reaction is incubated for 2 hours at 37° C., after which the reaction is stopped by the addition of 11 μl 36N sulfuric acid (H2SO4). The quantity of H2O2 generated is determined by measuring absorbance at 490 nm. FIG. 1 enzyme activity in Units is determined by comparison with a standard curve generated using known concentrations of H2O2. The amount of H2O2 (μM) corresponding to the observed absorbance at 490 nm is the amount of L-phenylalanine oxidized, since one H2O2 molecule is produced per L-amino acid oxidized. Therefore, FIG. 1 enzyme units can be calculated as follows:
Units (μmol/min)=(μM)/min×V
One unit oxidizes one micromole of L-phenylalanine per minute at 37° C. and pH 4.

Data set [2] deals with murine B cell line (M.12.4.1). As to the kind of experiment: Transfection of murine B cell line with vectors expressing mouse FIG. 1; cell toxicity. The class given is cell-based. Particulars: clones expressing FIG. 1 in the insoluble cell fraction; no stable transfectants obtained. The text has this: A murine B cell line (M.12.4.1) and fibroblast line (NIH3T3) is transfected with vectors expressing mouse FIG. 1. Specifically, a 1985 bp BamHI fragment containing the full length mouse FIG. 1 cDNA is inserted into the BamHI site of the pREP9 vector (InVitrogen, Carlsbad, Calif.), resulting in pMN10-9, a plasmid that expresses FIG. 1 mRNA from the vector's RSV 3′ LTR promoter. A 1930 bp PvuII/EcoRI fragment containing the full length mouse FIG. 1 cDNA is inserted into the Ecl126II/EcoRI sites of pIRES2-EGFP (Clontech), resulting in plasmid mFIG. 1-iGFP (also known as pAFFP), a plasmid that expresses FIG. 1 mRNA from the vector's CMV promoter.
NIH 3T3 cells are transfected with plasmid DNA using the calcium phosphate method. In particular, a Calcium Phosphate Mammalian Cell Transfection Kit (5 Prime→3 Prime, Inc., Boulder, Colo.) or Calcium Phosphate Transfection System (Life Technologies, Inc., Rockville, Md.) is used. A 40 μg plasmid DNA/calcium phosphate precipitate is prepared according to manufacturer's protocol and used to transfect 2×10^6 cells. M12.4. 1 cells are transfected by electorporation or with an Effectene Transfection Reagent (Qiagen, Inc., Valencia, Calif.). […]
During the selection of M.12.1 bulk transfectants, LAAO activity is detected after 15 days, peaking at 17 days, declining after 20 days to undetectable using procedures described above. […]

Where [3] appears, read: listed as interleukin four induced protein.

B1: FIG. 1: mouse immediate early interleukin-four induced protein with L-amino acid oxidase activity (SEQ ID NO:1), expressed in transfected cells (protein, listed as Mus sp.)
chain: MAGLALRLVLAATLLGLAGSLDWKAASSLNPIEKCMEDHDYEQLLKVVTLGLNRTSKPQKVVVVGAGVAGLVAAKMLSDAGHKVTILEADNRIGGRIFTFRDEKTGWIGELGAMRMPSSHRILHKLCRTLGLNLTQFTQYDENTWTEVHNVKLRNYVVEKMPEKLGYNLNNRERGHSPEDIYQMALNKAFKDLKALGCKKAMNKFNKHTLLEYLLEEGNLSRPAVQLLGDVMSEEGFFYLSFAEALRAHACLSDRLRYSRIVGGWDLLPRALLSSLSGALLLNAPVVSITQGRNDVRVHIATSLHSEKTLTADVVLLTASGPALQRITFSPPLTRKRQEALRALHYVAASKVFLSFRRPFWHEEHIEGGHSNTDRPSRLIFYPARGEGSLLLASYTWSDAAAPFAGLSTDQTLRLVLQDVAALHGPVVFRLWDGRGVVKRWAEDPHSQGGFVVQPPLYGREAEDYDWSAPFGRIYFAGEHTALPHGWVETAVKSGLRAAVRINNNYGYGEVDPQMMEHAYAEANYLDQYPEGERPEEQQAREEVSPDEQEPSHKHLLVETSPEGQQHAFVEAIPELQGHVFVETVPQEKGHAHQNIYPSEHVQVHGEVIPEWHGHGGSGTPQMHRVGDHS
B1: the “substrate preference of LAAO activity” value in data set [1] is “prefers aromatic amino acids as a substrate, with phenylalanine (Phe) being the optimal substrate”; in data set [1] (listed as FIG. 1 protein), “prefers aromatic L-amino acids for substrates, particularly L-phenylalanine”; in data set [1] (setting [3]) it was “lesser specificity for other aromatic amino acids such as tyrosine and tryptophan”. Moreover, in data set [1] (compared with pH 4.0), the “LAAO activity at pH values other than the optimum” value was “lower activity at pH 5, 8 and 9”. The figures for the “pH optimum of L-amino acid oxidase (LAAO) activity” value in data set [1], in data set [1] (listed as FIG. 1 protein) and in data set [1] (setting [3]) were 4, 4 and 4.0, respectively. Further, the “cell death in FIG. 1 transfectants” value in data set [2] was “significant cell death”.

Values taken from patent publication US20030045688A1, “Human interleukin-four induced protein” (priority 2000, published 2003).
